Here are results for 93 variants from IntAct's records for PubMed 29039417.

The labels stand for the following.
B1: Protein PTHB1 (Homo sapiens), Q3SYG4 (parent)
chain: MSLFKARDWWSTILGDKEEFDQGCLCLANVDNSGNGQDKIIVGSFMGYLRIFSPHPAKTGDGAQAEDLLLEVDLRDPVLQVEVGKFVSGTEMLHLAVLHSRKLCVYSVSGTLGNVEHGNQCQMKLMYEHNLQRTACNMTYGSFGGVKGRDLICIQSMDGMLMVFEQESYAFGRFLPGFLLPGPLAYSSRTDSFLTVSSCQQVESYKYQVLAFATDADKRQETEQQKLGSGKRLVVDWTLNIGEQALDICIVSFNQSASSVFVLGERNFFCLKDNGQIRFMKKLDWSPSCFLPYCSVSEGTINTLIGNHNNMLHIYQDVTLKWATQLPHIPVAVRVGCLHDLKGVIVTLSDDGHLQCSYLGTDPSLFQAPNVQSRELNYDELDVEMKELQKIIKDVNKSQGVWPMTEREDDLNVSVVVSPNFDSVSQATDVEVGTDLVPSVTVKVTLQNRVILQKAKLSVYVQPPLELTCDQFTFEFMTPDLTRTVSFSVYLKRSYTPSELEGNAVVSYSRPTDRNPDGIPRVIQCKFRLPLKLICLPGQPSKTASHKITIDTNKSPVSLLSLFPGFASQSDDDQVNVMGFHFLGGARITVLASKTSQRYRIQSEQFEDLWLITNELILRLQEYFEKQGVKDFACSFSGSIPLQEYFELIDHHFELRINGEKLEELLSERAVQFRAIQRRLLARFKDKTPAPLQHLDTLLDGTYKQVIALADAVEENQGNLFQSFTRLKSATHLVILLIALWQKLSADQVAILEAAFLPLQEDTQELGWEETVDAAISHLLKTCLSKSSKEQALNLNSQLNIPKDTSQLKKHITLLCDRLSKGGRLCLSTDAAAPQTMVMPGGCTTIPESDLEERSVEQDSTELFTNHRHLTAETPRPEVSPLQGVSE
partner: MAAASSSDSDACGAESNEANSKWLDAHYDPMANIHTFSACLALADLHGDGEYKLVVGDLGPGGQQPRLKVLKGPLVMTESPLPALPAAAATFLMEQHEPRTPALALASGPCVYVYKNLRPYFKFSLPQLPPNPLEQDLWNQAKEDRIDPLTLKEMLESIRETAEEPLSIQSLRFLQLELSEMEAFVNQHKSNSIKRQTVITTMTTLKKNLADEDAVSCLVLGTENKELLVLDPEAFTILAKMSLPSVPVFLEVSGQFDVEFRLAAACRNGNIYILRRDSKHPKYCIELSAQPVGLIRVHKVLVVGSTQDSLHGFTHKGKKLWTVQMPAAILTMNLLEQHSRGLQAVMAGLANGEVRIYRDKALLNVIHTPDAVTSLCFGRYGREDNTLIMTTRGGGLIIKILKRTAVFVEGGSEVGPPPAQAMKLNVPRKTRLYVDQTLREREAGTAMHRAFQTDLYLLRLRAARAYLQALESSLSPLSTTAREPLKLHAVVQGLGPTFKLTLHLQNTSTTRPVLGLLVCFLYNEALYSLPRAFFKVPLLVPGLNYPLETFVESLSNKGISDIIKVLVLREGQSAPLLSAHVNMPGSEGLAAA

Variants of B1 are the subject of the experiment. The settings on record: with bbs1_human BBS1, Q8NFJ9.
With T836A, the “effect of a mutation on the interaction” value is reported as “with no effect”. Regarding E878K, the “effect of a mutation on the interaction” value is recorded as “with no effect”.

For E878A, the “effect of a mutation on the interaction” value is “with no effect”. Then H869A, with “with no effect”. For H869K, the “effect of a mutation on the interaction” value was “with no effect”. Consider H869E, for which the “effect of a mutation on the interaction” value is “with no effect”. Regarding L825K, the “effect of a mutation on the interaction” value is reported as “with no effect”. With G842K the entry was “with no effect”; with G842E, “with no effect”; with G842A, “with no effect”.

On to S849A, for which the “effect of a mutation on the interaction” value is listed as “with no effect”.

S849E: the “effect of a mutation on the interaction” value was “with no effect”. S849K: the “effect of a mutation on the interaction” value is recorded as “with no effect”. S860A: the “effect of a mutation on the interaction” value is recorded as “with no effect”. In the case of S860E, the “effect of a mutation on the interaction” value was “with no effect”.

For S860K, the “effect of a mutation on the interaction” value is reported as “with no effect”. With E853K the entry was “with no effect”; with E853A, “with no effect”; with L863E, “with no effect”. Then L863K, with “with no effect”; and L863A, with “with no effect”.

For the variant E857A, the “effect of a mutation on the interaction” value is reported as “with no effect”.

As for E857K, the “effect of a mutation on the interaction” value is recorded as “with no effect”.

As for D859K, the “effect of a mutation on the interaction” value is recorded as “with no effect”. Then D859E, with “with no effect”; and D859A, with “with no effect”; and E852A, with “with no effect”. Then E852K, with “with no effect”; and C843A, with “with no effect”. With C843K the entry was “with no effect”. For C843E, the “effect of a mutation on the interaction” value is “with no effect”.

For C826E, the “effect of a mutation on the interaction” value is recorded as “with no effect”.

In the case of C826A, the “effect of a mutation on the interaction” value is “with no effect”. Then C826K, with “with no effect”. Then R854E, with “with no effect”; and R854K, with “with no effect”; and R854A, with “with no effect”. With F864K the entry was “with no effect”; with F864A, “with no effect”; with F864E, “with no effect”. With A872K, the “effect of a mutation on the interaction” value is reported as “with no effect”. Then A872E, with “with no effect”. Then Q858E, with “with no effect”; and Q858A, with “with no effect”. With Q858K the entry was “with no effect”; with A833S, “disrupting interaction strength”. Consider A833K, for which the “effect of a mutation on the interaction” value is “with no effect”.

As for A833E, the “effect of a mutation on the interaction” value is “with no effect”. Take P840E: the “effect of a mutation on the interaction” value is recorded as “with no effect”. Then P840K, with “disrupting interaction strength”. Turning to P840A, the “effect of a mutation on the interaction” value is reported as “with no effect”. Then P847A, with “with no effect”. On to P847K, for which the “effect of a mutation on the interaction” value is listed as “with no effect”. Then P847E, with “with no effect”; and P881K, with “with no effect”; and P881A, with “with no effect”. Then P881E, with “with no effect”; and S828E, with “with no effect”; and S828K, with “with no effect”. Regarding S828A, the “effect of a mutation on the interaction” value is given as “with no effect”. As for M839K, the “effect of a mutation on the interaction” value is “with no effect”.

M839E: the “effect of a mutation on the interaction” value was “with no effect”. Take M839A: the “effect of a mutation on the interaction” value is “with no effect”.

For the variant L870K, the “effect of a mutation on the interaction” value is “with no effect”. With L870A the entry was “with no effect”; with L870E, “with no effect”.

On to G884K, for which the “effect of a mutation on the interaction” value is listed as “with no effect”. For the variant G884A, the “effect of a mutation on the interaction” value is recorded as “with no effect”. Then G884E, with “with no effect”; and R868A, with “with no effect”. Then R868K, with “with no effect”; and R868E, with “with no effect”; and A831K, with “with no effect”. With A831E the entry was “with no effect”. For the variant D830A, the “effect of a mutation on the interaction” value was “with no effect”. With D830E the entry was “with no effect”; with D830K, “with no effect”.

Turning to H867A, the “effect of a mutation on the interaction” value is given as “with no effect”. Then H867K, with “with no effect”. With H867E the entry was “with no effect”. With E848A the entry was “with no effect”; with E848K, “with no effect”; with E873K, “with no effect”. With E873A, the “effect of a mutation on the interaction” value is recorded as “with no effect”. Then S880A, with “with no effect”; and S880E, with “with no effect”; and S880K, with “with no effect”. With R876K the entry was “with no effect”; with R876E, “with no effect”; with R876A, “with no effect”. Regarding L882E, the “effect of a mutation on the interaction” value is listed as “with no effect”. On to L882K, for which the “effect of a mutation on the interaction” value is on record as “with no effect”.

Turning to L882A, the “effect of a mutation on the interaction” value is “with no effect”.
